Source: paper PMC3312341 (Journal of Molecular Biology, 2012)

T1: biotinylated human erythrocyte β-spectrin repeats 12–17 (human, UniProt P11277 1486-2083, biotin (biotinylated; site not stated))
T1 sequence (looked up): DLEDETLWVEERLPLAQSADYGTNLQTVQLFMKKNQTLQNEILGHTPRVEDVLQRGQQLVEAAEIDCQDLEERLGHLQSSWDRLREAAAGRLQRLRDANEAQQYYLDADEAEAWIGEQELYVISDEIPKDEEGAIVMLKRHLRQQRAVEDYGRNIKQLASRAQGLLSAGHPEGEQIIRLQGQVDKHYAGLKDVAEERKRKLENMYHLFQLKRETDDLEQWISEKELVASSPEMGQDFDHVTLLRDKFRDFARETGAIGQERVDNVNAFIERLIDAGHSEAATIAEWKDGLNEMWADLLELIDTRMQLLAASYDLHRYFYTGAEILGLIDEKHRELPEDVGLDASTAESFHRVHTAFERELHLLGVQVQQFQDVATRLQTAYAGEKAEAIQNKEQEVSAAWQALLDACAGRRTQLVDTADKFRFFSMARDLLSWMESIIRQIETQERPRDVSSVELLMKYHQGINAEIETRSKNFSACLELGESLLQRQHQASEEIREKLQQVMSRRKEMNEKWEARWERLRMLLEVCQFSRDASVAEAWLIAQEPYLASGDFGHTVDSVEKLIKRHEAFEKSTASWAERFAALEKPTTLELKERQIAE


Experiments:
[1] = biological target: T1, biotinylated human erythrocyte …; assay: SPR
SEC = biological target: the molecule itself; assay: SEC

| Binder | Kd [1] [nM] | stoichiometry N (SEC) |
| --- | --- | --- |
| ZU5A-ZU5B fragment of human erythrocyte ankyrin (ankyrin-R), residues 911–1233 (domain or fragment, UniProt P16157 911-1233, looked up) TGFLVSFMVDARGGSMRGSRHNGLRVVIPPRTCAAPTRITCRLVKPQKLSTPPPLAEEEGLASRIIALGPTGAQFLSPVIVEIPHFASHGRGDRELVVLRSENGSVWKEHRSRYGESYLDQILNGMDEELGSLEELEKKRVCRIITTDFPLYFVIMSRLCQDYDTIGPEGGSLKSKLVPLVQATFPENAVTKRVKLALQAQPVPDELVTKLLGNQATFSPIVTVEPRRRKFHRPIGLRIPLPPSWTDNPRDSGEGDTTSLRLLCSVIGGTDQAQWEDITGTTKLVYANECANFTTNVSARFWLSDCPRTAEAVNFATLLYKEL | 8.3 |  |
| Ankyrin-R Death domain (DD), residues 1394–1497 (domain or fragment, human, UniProt P16157 1394-1497, looked up) PGSLSGTEQAEMKMAVISEHLGLSWAELARELQFSVEDINRIRVENPNSLLEQSVALLNLWVIREGQNANMENLYTALQSIDRGEIVNMLEGSGRQSRNLKPDR |  | 2 |
